Measured values from patent publication US9677045B2, “Microorganisms and methods for production of 4-hydroxybutyrate, 1,4-butanediol and related compounds” (priority 2012, dated 2017).

Tests used:
[1] = system: BCKA in Bacillus subtilis; conditions: decarboxylation; cited from earlier work
[2] = target: T1, phosphotransbutyrylase (PTB) (Clostridium acetobutylicum, UniProt P58255); assay: PTB enzyme activity, butyryl-CoA to butyryl-phosphate (DTNB); assay type: biochemical; conditions: extracts of cells with native ptb/bk operon (0020, 0021) in pZA33
T1 construct: made in house; host or cells: E. coli, plasmid pZA33-0020-0021, cell extract
T1 sequence (P58255 1-301): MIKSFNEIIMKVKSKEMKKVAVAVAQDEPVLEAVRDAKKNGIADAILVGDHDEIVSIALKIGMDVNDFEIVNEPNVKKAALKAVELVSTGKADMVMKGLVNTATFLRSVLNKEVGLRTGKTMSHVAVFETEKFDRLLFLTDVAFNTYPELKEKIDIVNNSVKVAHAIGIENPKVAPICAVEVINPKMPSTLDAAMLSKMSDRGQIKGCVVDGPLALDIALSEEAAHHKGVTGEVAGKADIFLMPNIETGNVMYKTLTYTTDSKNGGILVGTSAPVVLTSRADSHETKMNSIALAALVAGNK
Procedure: The enzyme activity of PTB is measured in the direction of butyryl-CoA to butyryl-phosphate as described in Cary et al. J. Bacteriol. 170:4613-4618 (1988). It provides inorganic phosphate for the conversion, and follows the increase in free CoA with the reagent 5,5′-dithiobis-(2-nitrobenzoic acid), or DTNB. DTNB rapidly reacts with thiol groups such as free CoA to release the yellow-colored 2-nitro-5-mercaptobenzoic acid (TNB), which absorbs at 412 nm with a molar extinction coefficient of 14,140 M cm^−1. The assay buffer contained 150 mM potassium phosphate at pH 7.4, 0.1 mM DTNB, and 0.2 mM butyryl-CoA, and the reaction was started by addition of 2 to 50 μL cell extract. The enzyme activity of BK is measured in the direction of butyrate to butyryl-phosphate formation at the expense of ATP. The procedure is similar to the assay for acetate kinase previously described Rose et al., J. Biol. Chem. 211:737-756 (1954). […] This assay links conversion of ATP to ADP by acetate kinase to the linked conversion of ADP and phosphoenolpyruvate (PEP) to ATP and pyruvate by pyruvate kinase, followed by the conversion of pyruvate and NADH to lactate and NAD+ by lactate dehydrogenase. […] The reaction was started by adding 2 to 50 μL cell extract, and the reaction was monitored based on the decrease in absorbance at 340 nm indicating NADH oxidation. […]

[3] = target: T2, endogenous alcohol dehydrogenase (yjgB) (Escherichia coli, UniProt P27250); conditions: purified protein, in the presence of NADP+; FIG. 85
T2 sequence (P27250 1-339): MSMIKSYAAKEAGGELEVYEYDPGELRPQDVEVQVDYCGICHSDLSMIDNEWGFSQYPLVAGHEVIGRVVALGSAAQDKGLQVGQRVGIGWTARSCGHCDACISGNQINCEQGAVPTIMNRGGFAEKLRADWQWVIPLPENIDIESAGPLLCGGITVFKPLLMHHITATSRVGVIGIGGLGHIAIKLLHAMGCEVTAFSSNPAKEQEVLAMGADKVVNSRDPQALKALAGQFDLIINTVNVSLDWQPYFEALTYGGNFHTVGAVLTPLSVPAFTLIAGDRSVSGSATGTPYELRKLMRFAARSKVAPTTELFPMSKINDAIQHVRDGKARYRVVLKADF
Procedure: The sample was purified while following the backflux activity.
A fresh sample of 1427 cells from a 2 L LB preparation grown aerobically overnight was lysed using the microfluidizer at 15,000 psi. The sample was then fractionated via ammonium sulfate.
The 60% ammonium sulfate pellet was resuspended in a low salt buffer and dialyzed overnight to remove the residual ammonium sulfate. The sample was loaded onto a 5 ml Q-sepharose column (strong anion exchange) and eluted via a slow increasing salt gradient.
The peak backflux activity from anion exchange was pooled and concentrated to allow for application to a S200 sephacryl size exclusion column.
The peak with the highest backflux activity from the size exclusion column was pooled and loaded on a phenyl sepharose column (hydrophobic interaction column). The ionic strength of the sample was increased to facilitate binding to the resin.

Molecule: O=C(O)CCC(=O)C(=O)O [2-Oxoglutarate]
- activity relative to other branched-chain substrates [1]: 5%

B1: PTB: phosphotransbutyrylase from C. acetobutylicum (gene 0020) (protein, UniProt P58255 1-301, looked up)
Phosphate butyryltransferase: T1 sequence (P58255 1-301)
- specific activity of PTB [2]: approximately 5 U/mg

B2: yjgB: E. coli alcohol dehydrogenase yjgB, cloned with a streptavidin tag and purified (protein, UniProt P27250 1-339, looked up)
Aldehyde reductase Ahr: T2 sequence (P27250 1-339)
modifications: streptavidin tag
- activity with BDO as a substrate [3]: robust activity was confirmed
